Experimental data reported in paper PMC7024214.

Biological target: elastase (UniProt P00772)

inhibition of the activity of elastase (IC50)	Substance
4 nM	tutuilamide A (peptide)
3.6 nM	tutuilamide B (peptide)
